# Results reported in patent US20200264182A1, “METHOD FOR DETECTING PROSTATE CANCER” (J-OIL MILLS, INC., priority 2017, published 2020).
# Legend:
# [1] = molecular target: serum fucosylated PSA (prostate specific antigen) (human) (UniProt P07288); assay: sandwich ELISA, anti-PSA antibody capture, biotin-lectin detection, pH 9.6; sera of subgroup GS7, n=2
# [2] = molecular target: serum fucosylated PSA (prostate specific antigen) (human) (UniProt P07288); assay: sandwich ELISA, anti-PSA antibody capture, biotin-lectin detection, pH 9.6; serum of Prostate cancer 8 (GS 8)
# [3] = molecular target: serum fucosylated PSA (prostate specific antigen) (human) (UniProt P07288); assay: sandwich ELISA, anti-PSA antibody capture, biotin-lectin detection, pH 9.6; serum of Prostate cancer 5 (GS 7)
# [4] = molecular target: serum fucosylated PSA (prostate specific antigen) (human) (UniProt P07288); assay: sandwich ELISA, anti-PSA antibody capture, biotin-lectin detection, pH 9.6; subject samples B, subgroup GS7, n=11
# [5] = molecular target: serum fucosylated PSA (prostate specific antigen) (human) (UniProt P07288); assay: sandwich ELISA, anti-PSA antibody capture, biotin-lectin detection, pH 9.6; subject samples B, subgroup Negative, n=9
# [6] = molecular target: serum fucosylated PSA (prostate specific antigen) (human) (UniProt P07288); assay: sandwich ELISA, anti-PSA antibody capture, biotin-lectin detection, pH 9.6; sera of the healthy person group (n=7)
# [7] = molecular target: serum fucosylated PSA (prostate specific antigen) (human) (UniProt P07288); assay: sandwich ELISA, anti-PSA antibody capture, biotin-lectin detection, pH 9.6; sera of the prostate cancer patient group (n=9)
# [8] = molecular target: serum fucosylated PSA (prostate specific antigen) (human) (UniProt P07288); assay: sandwich ELISA, anti-PSA antibody capture, biotin-lectin detection, pH 9.6; serum of Healthy 5
# [9] = molecular target: serum fucosylated PSA (prostate specific antigen) (human) (UniProt P07288); assay: sandwich ELISA, anti-PSA antibody capture, biotin-lectin detection, pH 9.6; serum of Prostate cancer 3 (GS 6)
# [10] = molecular target: serum fucosylated PSA (prostate specific antigen) (human) (UniProt P07288); assay: sandwich ELISA, anti-PSA antibody capture, biotin-lectin detection, pH 9.6; serum of Prostate cancer 1 (GS 4)
# [11] = molecular target: serum fucosylated PSA (prostate specific antigen) (human) (UniProt P07288); assay: sandwich ELISA, anti-PSA antibody capture, biotin-lectin detection, pH 9.6; serum of Healthy 1
# [12] = molecular target: serum fucosylated PSA (prostate specific antigen) (human) (UniProt P07288); assay: sandwich ELISA, anti-PSA antibody capture, biotin-lectin detection, lectin reaction pH 7.4; serum of Prostate cancer 4 (GS6)
# [13] = molecular target: serum fucosylated PSA (prostate specific antigen) (human) (UniProt P07288); assay: sandwich ELISA, anti-PSA antibody capture, biotin-lectin detection, pH 9.6; subject samples B, subgroup GS6, n=9
# [14] = molecular target: serum fucosylated PSA (prostate specific antigen) (human) (UniProt P07288); assay: sandwich ELISA, anti-PSA antibody capture, biotin-lectin detection, pH 9.6; subject samples B, subgroup GS8-9, n=6
# [15] = molecular target: serum fucosylated PSA (prostate specific antigen) (human) (UniProt P07288); assay: sandwich ELISA, anti-PSA antibody capture, biotin-lectin detection, pH 9.6; sera of subgroup GS6, n=2
# [16] = molecular target: serum fucosylated PSA (prostate specific antigen) (human) (UniProt P07288); assay: sandwich ELISA, anti-PSA antibody capture, biotin-lectin detection, pH 9.6; serum of Prostate cancer 9 (GS 8)
# [17] = molecular target: serum fucosylated PSA (prostate specific antigen) (human) (UniProt P07288); assay: sandwich ELISA, anti-PSA antibody capture, biotin-lectin detection, pH 9.6; serum of Prostate cancer 7 (GS 8)
# [18] = molecular target: serum fucosylated PSA (prostate specific antigen) (human) (UniProt P07288); assay: sandwich ELISA, anti-PSA antibody capture, biotin-lectin detection, pH 9.6; serum of Healthy 6
# [19] = molecular target: serum fucosylated PSA (prostate specific antigen) (human) (UniProt P07288); assay: sandwich ELISA, anti-PSA antibody capture, biotin-lectin detection, pH 9.6; serum of Healthy 4
# [20] = molecular target: serum fucosylated PSA (prostate specific antigen) (human) (UniProt P07288); assay: sandwich ELISA, anti-PSA antibody capture, biotin-lectin detection, pH 9.6; serum of Healthy 2
# [21] = molecular target: serum fucosylated PSA (prostate specific antigen) (human) (UniProt P07288); assay: sandwich ELISA, anti-PSA antibody capture, biotin-lectin detection, pH 9.6; serum of Prostate cancer 6 (GS 7)
# [22] = molecular target: serum fucosylated PSA (prostate specific antigen) (human) (UniProt P07288); assay: sandwich ELISA, anti-PSA antibody capture, biotin-lectin detection, pH 9.6; serum of Prostate cancer 4 (GS 6)
# [23] = molecular target: serum fucosylated PSA (prostate specific antigen) (human) (UniProt P07288); assay: sandwich ELISA, anti-PSA antibody capture, biotin-lectin detection, lectin reaction pH 7.4; serum of Healthy 1
# [24] = molecular target: serum fucosylated PSA (prostate specific antigen) (human) (UniProt P07288); assay: sandwich ELISA, anti-PSA antibody capture, biotin-lectin detection, pH 9.6; sera of subgroup Negative (GS5 or less), n=2
# [25] = molecular target: serum fucosylated PSA (prostate specific antigen) (human) (UniProt P07288); assay: sandwich ELISA, anti-PSA antibody capture, biotin-lectin detection, pH 9.6; serum of Healthy 3
# [26] = molecular target: serum fucosylated PSA (prostate specific antigen) (human) (UniProt P07288); assay: sandwich ELISA, anti-PSA antibody capture, biotin-lectin detection, lectin reaction pH 9.6; serum of Healthy 1
# [27] = molecular target: serum fucosylated PSA (prostate specific antigen) (human) (UniProt P07288); assay: sandwich ELISA, anti-PSA antibody capture, biotin-lectin detection, pH 9.6; sera of subgroup GS8 or more, n=3
# [28] = molecular target: serum fucosylated PSA (prostate specific antigen) (human) (UniProt P07288); assay: sandwich ELISA, anti-PSA antibody capture, biotin-lectin detection, lectin reaction pH 9.6; serum of Prostate cancer 4 (GS6)
# [29] = molecular target: serum fucosylated PSA (prostate specific antigen) (human) (UniProt P07288); assay: sandwich ELISA, anti-PSA antibody capture, biotin-lectin detection, pH 9.6; serum of Healthy 7
# [30] = molecular target: serum fucosylated PSA (prostate specific antigen) (human) (UniProt P07288); assay: sandwich ELISA, anti-PSA antibody capture, biotin-lectin detection, pH 9.6; serum of Prostate cancer 2 (GS 5)
substance,measurement,setting,value
"Pholiota squarrosa lectin (PhoSL), biotin-labeled",PhoSL reaction value (mean value),[1],142 U/mL
same,PhoSL reaction value (median value),[1],142 U/mL
same,PhoSL reaction value,[2],130 U/mL
same,PhoSL reaction value,[3],116 U/mL
same,PhoSL reaction value (mean value),[4],120 U/mL
same,PhoSL reaction value (median value),[4],211 U/mL
same,PhoSL reaction value (mean value),[5],204 U/mL
same,PhoSL reaction value (median value),[5],178 U/mL
same,PhoSL reaction value (average value),[6],57.3 U/mL
same,PhoSL reaction value (median value),[6],55.9 U/mL
same,PhoSL reaction value (average value),[7],145 U/mL
same,PhoSL reaction value (median value),[7],126 U/mL
same,PhoSL reaction value,[8],55.8 U/mL
same,PhoSL reaction value,[9],104 U/mL
same,PhoSL reaction value,[10],116 U/mL
same,PhoSL reaction value,[11],51.9 U/mL
same,PhoSL reaction value,[12],108 U/mL
same,PhoSL reaction value (mean value),[13],182 U/mL
same,PhoSL reaction value (median value),[13],189 U/mL
same,PhoSL reaction value (mean value),[14],233 U/mL
same,PhoSL reaction value (median value),[14],240 U/mL
same,PhoSL reaction value (mean value),[15],142 U/mL
same,PhoSL reaction value (median value),[15],142 U/mL
same,PhoSL reaction value,[16],251 U/mL
same,PhoSL reaction value,[17],126 U/mL
same,PhoSL reaction value,[18],39.7 U/mL
same,PhoSL reaction value,[19],74.9 U/mL
same,PhoSL reaction value,[20],55.9 U/mL
same,PhoSL reaction value,[21],168 U/mL
same,PhoSL reaction value,[22],179 U/mL
same,PhoSL reaction value,[23],35.8 U/mL
same,PhoSL reaction value (mean value),[24],116 U/mL
same,PhoSL reaction value (median value),[24],116 U/mL
same,PhoSL reaction value,[25],63.9 U/mL
same,PhoSL reaction value,[26],51.9 U/mL
same,PhoSL reaction value (mean value),[27],130 U/mL
same,PhoSL reaction value (median value),[27],169 U/mL
same,PhoSL reaction value,[28],179 U/mL
same,PhoSL reaction value,[29],59 U/mL
same,PhoSL reaction value,[30],117 U/mL
